We go through one molecule from paper PMC7210950 (2020).

Square brackets hold non-standard residues; d marks the D form. Ends that are not written are not given here. pY = N[C@@H](Cc1ccc(OP(=O)(O)O)cc1)C(=O)O

What all share (experiment): FP
For assay [1], the target named is Btk SH2 domain S371P (XLA mutation) (human, UniProt Q06187 271-383, S371P).
For assay [2], the target named is Btk SH2 domain H364D (XLA mutation) (human, UniProt Q06187 271-383, H364D).
Assay [3] addresses Btk SH2 domain K296E (XLA mutation) (human, UniProt Q06187 271-383, K296E).
The target of assay [4] is Btk SH2 domain K374N (XLA mutation) (human, UniProt Q06187 271-383, K374N).
Btk SH2 domain K374N (XLA mutation), sequence (Q06187 271-383 K374N): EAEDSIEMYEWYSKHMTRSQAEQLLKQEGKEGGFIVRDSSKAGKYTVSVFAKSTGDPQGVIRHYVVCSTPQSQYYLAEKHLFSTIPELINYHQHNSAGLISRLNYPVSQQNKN
In assay [5] the target is Btk SH2 domain R372G (XLA mutation) (human, UniProt Q06187 271-383, R372G).
Btk SH2 domain R372G (XLA mutation), sequence (Q06187 271-383 R372G): as the sequence (Q06187 271-383 K374N) above, with R102G, N104K counted along it
Assay [6] addresses Btk SH2 domain, wild-type (recombinant) (human, UniProt Q06187 271-383).

Btk SH2 domain H364D (XLA mutation), sequence (Q06187 271-383 H364D): as the sequence (Q06187 271-383 K374N) above, with H94D, N104K counted along it
Btk SH2 domain K296E (XLA mutation), sequence (Q06187 271-383 K296E): as the sequence (Q06187 271-383 K374N) above, with K26E, N104K counted along it
Btk SH2 domain, wild-type (recombinant), sequence (Q06187 271-383): as the sequence (Q06187 271-383 K374N) above, with N104K counted along it
Btk SH2 domain S371P (XLA mutation), sequence (Q06187 271-383 S371P): as the sequence (Q06187 271-383 K374N) above, with S101P, N104K counted along it

As for ADND[pY]IIPLPD (also: FITC label, end not given here) [FITC-labeled pY-peptide (ADNDpYIIPLPD)], the Kd worked out at 5.7 µM in assay [1]; 6.9 µM in assay [2]; 21.8 µM in assay [3]; 8.7 µM in assay [4]; 5.8 µM in assay [5]; 7.1 µM in assay [6].

What is called Kd is the free concentration of one partner at which half of the binding sites on the other are occupied at equilibrium, for simple one-to-one binding.
